Article PMC12271210

Assays:
KPNB1 = experiment: BLI; APS probe with immobilised KPNB1 (10 μg/ml, to saturation), N protein in solution (gradient 0.61–2.07 μM or 4.17–8.89 μM); 30°C, PBS + 0.2% BSA; 1:1 binding model; ForteBio Octet
[1] = target: classic PRRSV N protein (porcine reproductive and respiratory syndrome virus (classic PRRSV)); experiment: BLI; SA probe with immobilised N protein (10 μg/ml, immobilization height 2.2 nm), KPNA1 in solution (gradient 1.47–4.97 μM or 0.87–9.95 μM); 30°C, PBS + 0.2% BSA; 1:1 binding model; ForteBio Octet
[2] = target: HP-PRRSV N protein (porcine reproductive and respiratory syndrome virus (HP-PRRSV)); experiment: as above

Substance	Kd (KPNB1)	koff (KPNB1)	kon (KPNB1)	Kd [1]	koff [1]	kon [1]	Kd [2]	koff [2]	kon [2]
HP-PRRSV N protein (natural protein)	2130 nM	0.00737 s⁻¹	3450 M⁻¹ s⁻¹	–	–	–	–	–	–
KPNA1 (receptor)	–	–	–	304 nM	0.000619 s⁻¹	2030 M⁻¹ s⁻¹	910 nM	0.000446 s⁻¹	490 M⁻¹ s⁻¹
classic PRRSV N protein (natural protein)	293 nM	0.00179 s⁻¹	6110 M⁻¹ s⁻¹	–	–	–	–	–	–
